Reference: IntAct's records for PubMed 11741956

B1: Proto-oncogene tyrosine-protein kinase LCK (Mus musculus), P06240 (parent)
chain: MGCVCSSNPEDDWMENIDVCENCHYPIVPLDSKISLPIRNGSEVRDPLVTYEGSLPPASPLQDNLVIALHSYEPSHDGDLGFEKGEQLRILEQSGEWWKAQSLTTGQEGFIPFNFVAKANSLEPEPWFFKNLSRKDAERQLLAPGNTHGSFLIRESESTAGSFSLSVRDFDQNQGEVVKHYKIRNLDNGGFYISPRITFPGLHDLVRHYTNASDGLCTKLSRPCQTQKPQKPWWEDEWEVPRETLKLVERLGAGQFGEVWMGYYNGHTKVAVKSLKQGSMSPDAFLAEANLMKQLQHPRLVRLYAVVTQEPIYIITEYMENGSLVDFLKTPSGIKLNVNKLLDMAAQIAEGMAFIEEQNYIHRDLRAANILVSDTLSCKIADFGLARLIEDNEYTAREGAKFPIKWTAPEAINYGTFTIKSDVWSFGILLTEIVTHGRIPYPGMTNPEVIQNLERGYRMVRPDNCPEELYHLMMLCWKERPEDRPTFDYLRSVLDDFFTATEGQYQPQP

Variants of: B1
Conditions: with cbl_human CBL

Row | Variant | effect of a mutation on the interaction
1 | W97A | decreasing interaction
